# Test results from patent US20250066499A1 (SUNSHINE GUOJIAN PHARMACEUTICAL SHANGHAI, published 2025).
# Residue numbers refer to the chain shown, from its start.
# T1: CD73-ND-Y135A (human, UniProt P21589 27-317)
# T1 construct: Alanine mutant of CD73-ND
# T1 sequence: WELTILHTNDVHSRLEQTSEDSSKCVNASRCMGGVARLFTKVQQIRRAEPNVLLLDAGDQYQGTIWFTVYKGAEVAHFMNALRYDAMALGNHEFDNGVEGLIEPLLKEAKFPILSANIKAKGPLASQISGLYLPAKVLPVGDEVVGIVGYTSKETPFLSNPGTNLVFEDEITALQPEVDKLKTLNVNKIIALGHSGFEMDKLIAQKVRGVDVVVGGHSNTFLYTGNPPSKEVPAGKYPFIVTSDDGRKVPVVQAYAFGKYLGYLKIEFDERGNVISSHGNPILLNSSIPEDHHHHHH
# T2: CD73-ND-his (human, UniProt P21589 27-317)
# T2 construct: Biotinylated and captured on streptavidin in the ELISA
# T2 sequence: T1 sequence with A135Y
# T3: CD73-ND-Y132A (human, UniProt P21589 27-317)
# T3 construct: Alanine mutant of CD73-ND
# T3 sequence: T1 sequence with Y132A, A135Y
# T4: CD73-ND-K136A (human, UniProt P21589 27-317)
# T4 construct: Alanine mutant of CD73-ND
# T4 sequence: T1 sequence with A135Y, K136A
# T5: CD73-ND-V137A (human, UniProt P21589 27-317)
# T5 construct: Alanine mutant of CD73-ND
# T5 sequence: T1 sequence with A135Y, V137A
# T6: CD73-ND-P134A (human, UniProt P21589 27-317)
# T6 construct: Alanine mutant of CD73-ND
# T6 sequence: T1 sequence with P134A, A135Y
# B1: 48A11-HuV33 (antibody, human IgG4, V domains shown)
# VH: QVQLVQSGAEVKKPGASVKVSCKASGYTFTSYWMHWVRQAPGQGLEWIGEINPSIGRTNYNEKFKSRVTLTRDTSTSTAYMELSSLRSEDTAVYYCARRVYGTMDYWGQGTLVTVSS
# VL: DIQMTQSPSSLSASVGDRVTITCKASQDINSYLSWFQQKPGKSPKLLIYRANIWVDGVPSRFSGSGSGQDYTFTISSLQPEDIATYYCLQYDELYTFGQGTKVEIK
# notes: Humanized
# Key:
# Test in all cases: ELISA, biotinylated antigen on streptavidin plate
# CD73-ND-Y135A = target: T1, CD73-ND-Y135A
# Procedure: (§1) The ELISA plates were coated with SA protein diluted to 1.5 μg/mL in coating buffer (50 mM carbonate coating buffer, pH 9.6) and incubated overnight at 4° C. The supernatant was discarded, and the plates were washed three times with PBST. Then, 5% skimmed milk powder prepared with PBS was added for blocking and the plates were incubated for 2 h at 37° C. After washing the plates once with PBST, CD73-biotin protein (prepared by biotinylating CD73-His protein according to the EZ-Link NHS-Biotin Reagent instructions) was diluted to 0.5 μg/mL and added at 100 μL/well for incubation at room temperature for 1 h. The plates were washed three times with PBST, and the prepared murine-derived monoclonal antibodies against human CD73 were serially diluted with 1% BSA buffer prepared with PBST and added to the ELISA plates at 100 μl/well. The plates were incubated at 37° C. for 1 h. After washing the plates three times with PBST, HRP-labeled goat anti-mouse IgG secondary antibody was added and the plates were incubated for 30 min at 37° C. After washing the plates three times with PBST, the residual droplets were patted dry on absorbent paper as much as possible. Then, 100 μl of TMB color developing solution was added to each well, and the plates were incubated in the dark at room temperature for 5 min for color development. Subsequently, 50 μl of 2M H₂SO₄ stop solution was added to each well to terminate the substrate reaction. The OD values were read at 450 nm using a multimode microplate reader to analyze the binding ability of the tested antibodies to the target antigen human CD73-His.
# (§2) Referring to the experimental method in Example 3, the affinity of 48A11-HuV33 for various mutant proteins of CD73-ND was determined. The SA protein was diluted to 1 μg/mL for coating the ELISA plates, and the biotinylated CD73 protein (CD73-biotin) was used at a concentration of 0.1 μg/mL.
# CD73-ND-his = target: T2, CD73-ND-his
# Procedure: as §1, §2
# CD73-ND-Y132A = target: T3, CD73-ND-Y132A
# Procedure: as §1, §2
# CD73-ND-K136A = target: T4, CD73-ND-K136A
# Procedure: as §1, §2
# CD73-ND-V137A = target: T5, CD73-ND-V137A
# Procedure: as §1, §2
# CD73-ND-P134A = target: T6, CD73-ND-P134A
# Procedure: as §1, §2
binder,measurement,setting,value
B1,EC50,CD73-ND-Y135A,0.165 nM
same,EC50,CD73-ND-his,0.152 nM
same,EC50,CD73-ND-Y132A,10.5 nM
same,EC50,CD73-ND-K136A,0.145 nM
same,EC50,CD73-ND-V137A,0.891 nM
same,EC50,CD73-ND-P134A,0.205 nM
